The results in this text go back to article PMC3092982, “Zinc Binding to the Tyr402 and His402 Allotypes of Complement Factor H: Possible Implications for Age-Related Macular Degeneration” (Journal of Molecular Biology, 2011).

Changes are numbered by the printed parent chain.

The data set concerns the molecule itself. Briefly: AUC; sedimentation velocity, SCR-6/8 at 0.3 mg/ml (14.6 μM), Hepes buffer, 20 °C, 50,000 rpm, c(s) analysis; monomer and dimer peaks seen throughout the ZnSO4 titration 0.2-600 μM.

B1: recombinant FH fragment SCR-6/8 Tyr402 (domain or fragment, human)
chain: LKPCDYPDIKHGGLYHENMRRPYFPVAVGKYYSYYCDEHFETPSGSYWDHIHCTQDGWSPAVPCLRKCYFPYLENGYNQNYGRKFVQGKSIDVACHPGYALPKAQTTVTCMENGWSPTPRCIRVKTCSKSSIDIENGFISESQYTYALKEKAKYQCKLGYVTADGETSGSITCGKDGWSAQPTCI
notes: complement factor H, human, SCR domains 6 to 8, Tyr402 allotype; It says that SCR-6/8, unlike SCR-1/5 and SCR-16/20, has no His6-tag; also called SCR-6/8 Tyr402 allotype; source: E. coli BL21 (DE3), pET21ab
Turning to B1, the “stoichiometry N” value amounted to 2.

B2: recombinant FH fragment SCR-6/8 His402 (domain or fragment, human)
chain: B1 chain with Y81H
notes: complement factor H, human, SCR domains 6 to 8, His402 allotype; It says that SCR-6/8, unlike SCR-1/5 and SCR-16/20, has no His6-tag; PDB 2UWN is a cited crystal structure of SCR-6/8 His402 whose limits may differ from this construct; also called SCR-6/8 His402 allotype; source: E. coli BL21 (DE3)pLysS, pET14b
In the case of B2, the “stoichiometry N” value amounted to 2.
